Assay results: patent publication US20150344570A1 (published 2015)

The binders below were run against T1, FcγRIa (human, UniProt P12314 16-292) (assay: SPR (Biacore); He Ab relative to HeCon Ab = 100).
T1 construct: extracellular domain; also called FcgRI; 1a
Description: Analysis of interaction between objective antibody and the FcγR was carried out using Biacore T100 (GE Healthcare). HBS-EP+ (GE Healthcare) was used as the running buffer, and the measurement temperature was set to 25° C. Chips produced by immobilizing the antigen peptide by the amine coupling method to a Series S Sencor Chip CM5 (GE Healthcare), or alternatively, chips produced by allowing preliminarily biotinylated antigen peptides to interact with and immobilize onto a Series S Sensor Chip SA (certified) (GE Healthcare) were used. Antibodies of interest were captured onto an antigen peptide-immobilized chip, and allowed to interact to each FcγR diluted with running buffer. To regenerate and repeatedly use the chip, the antibodies captured on the chip were washed off by reacting 10 mM glycine-HCl, pH 1.5.

T1 sequence (P12314 16-292): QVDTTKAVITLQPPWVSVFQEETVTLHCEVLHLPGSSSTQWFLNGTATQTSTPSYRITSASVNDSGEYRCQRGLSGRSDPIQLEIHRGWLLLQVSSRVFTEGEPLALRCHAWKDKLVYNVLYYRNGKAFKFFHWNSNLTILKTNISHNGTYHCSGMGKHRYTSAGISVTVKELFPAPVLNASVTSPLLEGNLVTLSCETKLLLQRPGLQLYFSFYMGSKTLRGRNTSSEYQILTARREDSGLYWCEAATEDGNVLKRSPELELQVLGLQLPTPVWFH

He/Con_1a | Binder
101 % of control | GpH7-A5/GpH7-B3 variant E333_15Y/GpL16-k0 (antibody, human IgG1, kappa, also called He Ab E333_15Y) heavy 1: not shown heavy 2: not shown light: DIVMTQSPLSLPVTPGEPASISCQASESLVHSNRNTYLHWYLQKPGQSPQLLIYKVSNRFSGVPDRFSGSGSGTDFTLKISRVEAEDVGVYYCSQNTHVPPTFGQGTKVEIERTVAAPSVFIFPPSDEQLKSGTASVVCLLNNFYPREAKVQWKVDNALQSGNSQESVTEQDSKDSTYSLSSTLTLSKADYEKHKVYACEVTHQGLSSPVTKSFNRGEC
108 % of control | GpH7-A5/GpH7-B3 variant H268_07I/GpL16-k0 (antibody, human IgG1, kappa, also called He Ab H268_07I) heavy 1: not shown heavy 2: not shown light: DIVMTQSPLSLPVTPGEPASISCQASESLVHSNRNTYLHWYLQKPGQSPQLLIYKVSNRFSGVPDRFSGSGSGTDFTLKISRVEAEDVGVYYCSQNTHVPPTFGQGTKVEIERTVAAPSVFIFPPSDEQLKSGTASVVCLLNNFYPREAKVQWKVDNALQSGNSQESVTEQDSKDSTYSLSSTLTLSKADYEKHKVYACEVTHQGLSSPVTKSFNRGEC
106 % of control | GpH7-A5/GpH7-B3 variant H268_12R/GpL16-k0 (antibody, human IgG1, kappa, also called He Ab H268_12R) heavy 1: not shown heavy 2: not shown light: DIVMTQSPLSLPVTPGEPASISCQASESLVHSNRNTYLHWYLQKPGQSPQLLIYKVSNRFSGVPDRFSGSGSGTDFTLKISRVEAEDVGVYYCSQNTHVPPTFGQGTKVEIERTVAAPSVFIFPPSDEQLKSGTASVVCLLNNFYPREAKVQWKVDNALQSGNSQESVTEQDSKDSTYSLSSTLTLSKADYEKHKVYACEVTHQGLSSPVTKSFNRGEC
109 % of control | GpH7-A5/GpH7-B3 variant H268_05P/GpL16-k0 (antibody, human IgG1, kappa, also called He Ab H268_05P) heavy 1: not shown heavy 2: not shown light: DIVMTQSPLSLPVTPGEPASISCQASESLVHSNRNTYLHWYLQKPGQSPQLLIYKVSNRFSGVPDRFSGSGSGTDFTLKISRVEAEDVGVYYCSQNTHVPPTFGQGTKVEIERTVAAPSVFIFPPSDEQLKSGTASVVCLLNNFYPREAKVQWKVDNALQSGNSQESVTEQDSKDSTYSLSSTLTLSKADYEKHKVYACEVTHQGLSSPVTKSFNRGEC
100 % of control | GpH7-A5/GpH7-B3 variant G236_02A/GpL16-k0 (antibody, human IgG1, kappa, also called He Ab G236_02A) heavy 1: not shown heavy 2: not shown light: DIVMTQSPLSLPVTPGEPASISCQASESLVHSNRNTYLHWYLQKPGQSPQLLIYKVSNRFSGVPDRFSGSGSGTDFTLKISRVEAEDVGVYYCSQNTHVPPTFGQGTKVEIERTVAAPSVFIFPPSDEQLKSGTASVVCLLNNFYPREAKVQWKVDNALQSGNSQESVTEQDSKDSTYSLSSTLTLSKADYEKHKVYACEVTHQGLSSPVTKSFNRGEC
105 % of control | GpH7-A5/GpH7-B3 variant G236_20W/GpL16-k0 (antibody, human IgG1, kappa, also called He Ab G236_20W) heavy 1: not shown heavy 2: not shown light: DIVMTQSPLSLPVTPGEPASISCQASESLVHSNRNTYLHWYLQKPGQSPQLLIYKVSNRFSGVPDRFSGSGSGTDFTLKISRVEAEDVGVYYCSQNTHVPPTFGQGTKVEIERTVAAPSVFIFPPSDEQLKSGTASVVCLLNNFYPREAKVQWKVDNALQSGNSQESVTEQDSKDSTYSLSSTLTLSKADYEKHKVYACEVTHQGLSSPVTKSFNRGEC
109 % of control | GpH7-A5/GpH7-B3 variant H268_02A/GpL16-k0 (antibody, human IgG1, kappa, also called He Ab H268_02A) heavy 1: not shown heavy 2: not shown light: DIVMTQSPLSLPVTPGEPASISCQASESLVHSNRNTYLHWYLQKPGQSPQLLIYKVSNRFSGVPDRFSGSGSGTDFTLKISRVEAEDVGVYYCSQNTHVPPTFGQGTKVEIERTVAAPSVFIFPPSDEQLKSGTASVVCLLNNFYPREAKVQWKVDNALQSGNSQESVTEQDSKDSTYSLSSTLTLSKADYEKHKVYACEVTHQGLSSPVTKSFNRGEC
101 % of control | GpH7-A5/GpH7-B3 variant E333_16H/GpL16-k0 (antibody, human IgG1, kappa, also called He Ab E333_16H) heavy 1: not shown heavy 2: not shown light: DIVMTQSPLSLPVTPGEPASISCQASESLVHSNRNTYLHWYLQKPGQSPQLLIYKVSNRFSGVPDRFSGSGSGTDFTLKISRVEAEDVGVYYCSQNTHVPPTFGQGTKVEIERTVAAPSVFIFPPSDEQLKSGTASVVCLLNNFYPREAKVQWKVDNALQSGNSQESVTEQDSKDSTYSLSSTLTLSKADYEKHKVYACEVTHQGLSSPVTKSFNRGEC
107 % of control | GpH7-A5/GpH7-B3 variant H268_08L/GpL16-k0 (antibody, human IgG1, kappa, also called He Ab H268_08L) heavy 1: not shown heavy 2: not shown light: DIVMTQSPLSLPVTPGEPASISCQASESLVHSNRNTYLHWYLQKPGQSPQLLIYKVSNRFSGVPDRFSGSGSGTDFTLKISRVEAEDVGVYYCSQNTHVPPTFGQGTKVEIERTVAAPSVFIFPPSDEQLKSGTASVVCLLNNFYPREAKVQWKVDNALQSGNSQESVTEQDSKDSTYSLSSTLTLSKADYEKHKVYACEVTHQGLSSPVTKSFNRGEC
